Source: patent publication US20260216299A1, “Use of Cytoglobin in Preparation of Drug for Preventing and/or Treating Diabetes” (priority 2022, published 2026)

Legend:
Type in all cases: in vivo, C57BL/6J mice
[1] = tested on: C57BL/6J diabetic model mice; experiment: Weekly fasting blood glucose in high-fat diet diabetic model mice under treatment; details: daily subcutaneous injection, rhCygb 5 mg/kg; weekly monitoring; vs PBS group; FIG. 7
Excerpt: 50 SPF-grade male C57BL/6J mice were purchased from Guangzhou Sebiona Biotech Co., Ltd. Their health status and whether they were all male were checked. All male mice were divided into groups of 5 per cage, totaling ten cages, with cage numbering. Cages 1 to 8 were designated as the high-fat diet modeling group and fed a high-fat diet with ad libitum feeding and drinking. Cages 9 and 10 were designated as the normal diet modeling group and fed standard chow with ad libitum feeding and drinking. All mice were marked with tail lines for identification. During modeling, body weight and fasting blood glucose (FBG) levels of all mice were measured weekly, and tail markings were reinforced. […] At 9:00 AM every Friday, body weight was measured, the tail tip was clipped, and approximately 1-2 μL of (a drop of) blood was applied to a Roche Accu-Chek® Active test strip on a glucometer to determine FBG. […]
(§1) The mice of placebo group, rhCygb treatment group, and EX-4 treatment group received daily subcutaneous injections of PBS, rhCygb, or EX-4, respectively for 2 months (frequency adjusted based on survival status of mice). […] Absorbance at 510 nm was measured using a microplate reader. Cholesterol content was calculated according to the formula: […]

[2] = tested on: C57BL/6J diabetic model mice; experiment: Four blood lipid items in serum of treated mice (T-CHO, TG, HDL-C, LDL-C kits); details: after 28 d of treatment
Protocol: (§2) The AUC for blood glucose changes within two hours post-glucose gavage was shown in FIG. 5, confirming impaired glucose tolerance in the DM group. • 2) Successfully modeled mice were divided into three groups based on no statistical difference in blood glucose within groups and statistical difference in blood glucose between groups: wherein the three groups are rhCygb treatment group (5 mg/kg subcutaneous injection), exendin-4 treatment group (50 μg/kg subcutaneous injection), and placebo group (0.1 mL PBS subcutaneous injection) (grouping without re-caging, mice remained in original cages), respectively.
(§3) The mice of placebo group, rhCygb treatment group, and EX-4 treatment group received daily subcutaneous injections of PBS, rhCygb, or EX-4, respectively for 2 months (frequency adjusted based on survival status of mice). […] Mice were immediately sacrificed by cervical dislocation after blood collection and dissected for tissue collection. Liver tissue, pancreas, kidneys, heart, lungs, stomach, and spleen were sequentially collected for biochemical and pathological examination as detailed below. 3. Measurement of four blood lipid items • 1) Total Cholesterol (T-CHO) Measurement: prepared serum was diluted tenfold with physiological saline at a 1:9 ratio. Into each well of a 96-well plate, 2.5 μL of deionized water, 2.5 μL of standard, and 2.5 μL of sample were sequentially added. Then, 250 μL of working solution was added to each well, thoroughly mixed, and incubated at 37° C. for 10 min in an electric thermostatic incubator. Absorbance at 510 nm was measured using a microplate reader. Cholesterol content was calculated according to the formula: […]
Serum from each treated C57BL/6J mouse was assayed using a total cholesterol assay kit. […] Furthermore, no significant difference was observed between the treated groups (rhCygb treatment group and exendin-4 treatment group) and the blank control group, indicating effective therapeutic outcomes. • 2) Triglyceride (TG) Measurement: prepared serum was diluted tenfold with physiological saline at a 1:9 ratio. […] Absorbance at 510 nm was measured using a microplate reader. Triglyceride content was calculated according to the formula: […]
Serum from each treated C57BL/6J mouse was assayed using a triglyceride assay kit. […] Absorbance at 546 nm (A1) was measured using a microplate reader. […] Absorbance at 546 nm (A2) was measured again. HDL-C content was calculated according to the formula: […]
Serum from each treated C57BL/6J mouse was assayed using an HDL-C assay kit. […] Absorbance at 546 nm (A1) was measured using a microplate reader. […] Absorbance at 546 nm (A2) was measured again. LDL-C content was calculated according to the formula: […]

[3] = tested on: pancreatic tissue of C57BL/6J diabetic model mice; experiment: H&E staining of pancreatic tissue sections
Protocol: as §2, §1
The severity of lesions observed in the HE-stained pathological sections of each mouse was graded. This ordinal data was analyzed using the K Independent Samples non-parametric test in SPSS software, and the result indicated a statistically significant difference between groups. As SPSS lacks pairwise comparison for multiple independent samples, all data were ranked and converted into quantitative data, then subjected to one-way ANOVA.

[4] = tested on: renal tissue of C57BL/6J diabetic model mice; experiment: H&E staining of renal tissue; details: FIG. 14
Protocol: as §2
as §3, with “Into each well of a 96-well plate, 2.5 μL of deionized water, 2.5 μL of standard, and 2.5 μL of sample were sequentially added. Then, 250 μL of working solution was added to each well, thoroughly mixed, and incubated at 37° C. for 10 min in an electric thermostatic incubator.” left out

PCNA = PCNA immunohistochemistry of pancreatic tissue; details: pancreas; 4-week treatment; FIG. 15 to 16D
Protocol: (§4) Pancreatic tissues were sectioned at 4 μm and baked at 60° C. for 2 h until paraffin melted. Sections underwent hematoxylin-eosin (H&E) staining.
(§5) Sections were immersed in methanol containing 3% hydrogen peroxide (endogenous peroxidase blocker) for 15 min. After PBS (10 mM, pH=7.0) rinsing, sections were incubated at 25° C. for 1 h with antibody cocktails (rabbit anti-glucagon monoclonal antibody: anti-somatostatin antibody=1:1), or separately with: anti-mouse insulin antigen monoclonal antibody, anti-proliferating cell nuclear antigen (PCNA) monoclonal antibody, rabbit anti-Ki67 monoclonal antibody. Alternatively, sections were incubated with guinea pig anti-PDX-1 monoclonal antibody at 4° C. for 14 h. Nuclei were counterstained blue with hematoxylin and sections were subjected to morphometric analysis.
PCNA Analysis method: The immunohistochemistry results were analyzed for percentage using Image-Pro Plus 6.0 (Media Cybernetics, Rockville, MD, USA), at least 3 random field of view at 200× per section within a group were captured. […] Each photo was analyzed to obtain the number of positive cells and the total number of cells in each photo. Then, the percentage of positive cells was calculated, as: Positive cell percentage (%)=(Positive nuclei count/Total nuclei count)*100 was calculated as the positive rate.

[5] = tested on: Insulin and Glucagon expression in pancreatic islets; experiment: Glucagon/Insulin immunohistochemistry of pancreatic islets (average optical density)
Protocol: as §4, §5
Glucagon/Insulin Analysis Method: The immunohistochemistry results were analyzed for average optical density analysis using Image-Pro Plus 6.0 (Media Cybernetics, Inc., Rockville, MD, USA). For each section with a group, at least 3 fields of view at 200× magnification were captured. […] The integrated optical density (IOD) value of positive staining on the pancreatic islet and the pixel area (AREA) of the pancreatic islet were analyzed for each photo. The average optical density value (AO value) was calculated as AO=IOD/AREA. […]

B1: rhCygb: recombinant human cytoglobin; hexacoordinate heme globin, 21.4 kDa, 190 amino acids, injected as PBS solution (protein, UniProt Q8WWM9 1-190, looked up)
Cytoglobin: MEKVPGEMEIERRERSEELSEAERKAVQAMWARLYANCEDVGVAILVRFFVNFPSAKQYFSQFKHMEDPLEMERSPQLRKHACRVMGALNTVVENLHDPDKVSSVLALVGKAHALKHKVEPVYFKILSGVILEVVAEEFASDFPPETQRAWAKLRGLIYSHVTAAYKEVGWVQQVPNATTPPATLPSSGP
For B1, the blood glucose [1] was “significantly reduced blood glucose after 6 weeks”, the HDL-C levels ([2]; vs NC group, FIG. 10) was “numerically higher HDL-C levels on average compared to other groups” and the total cholesterol levels ([2]; subcutaneous rhCygb 5 mg/kg or exendin-4 50 μg/kg, FIG. 8) was “statistically significant reduction in total cholesterol levels compared to the placebo group”. The LDL-C levels ([2]; subcutaneous rhCygb 5 mg/kg or exendin-4 50 μg/kg, FIG. 11) was “statistically significant reduction in LDL-C levels compared to the placebo group”, the triglyceride levels ([2]; subcutaneous rhCygb 5 mg/kg, FIG. 9) was “statistically significant reduction in triglyceride levels compared to the placebo group” and the “severity of lesions in HE-stained pancreatic sections (graded, ranked, one-way ANOVA)” value ([3]; FIG. 13) was “no significant difference between rhCygb and NC groups”. The “pancreatic tissue morphology (H&E)” value ([3]; acinar cell steatosis, islet morphology, inflammation, FIGS. 12A-12D) was “normal pancreatic islet morphology without significant inflammation”, the “renal steatosis and inflammatory cell infiltration (H&E)” value [4] was “near-normal renal morphology without significant inflammatory cells” and the PCNA-positive cell rate (PCNA) was “significantly enhanced PCNA staining intensity”. The “expression level of glucagon (average optical density)” value ([5]; FIG. 17, 19) was “statistically significant differences compared to both the PBS group and the NC group” and the “expression level of insulin (average optical density)” value ([5]; FIG. 18, 20) was “statistically significant differences compared to both the PBS group and the NC group”.
